These results are taken from US20210371508A1 (University of Texas, published 2021).

The labels stand for the following.
B1: NMES-5 anti-NMES1 monoclonal antibody (antibody, IgG1, V domains shown)
VH: QVQLVQSGAEVKKPGASVKVSCKASGYTFTSYGISWVRQAPGQGLEWMGWISAYNGNTNYAQKLQGRVTMTTDTSTSTAYMELRSLRSDDTAVYYCARATRGNAFDIWGQGTMVSVSS
VL: QSALTQPASVSGSPGQSITISCTGTSSDVGAYNYVSWYQQHPGKAPKLMIYDVSNRPSGVSNRFSGSKSGNTASLTISGLQAEDEADYYCSSYTRSTTVVFGGGTKVTVL
notes: also called NM-5; NMES1-5
B2: NMES-10 anti-NMES1 monoclonal antibody (antibody, IgG1, V domains shown)
VH: B1 VH with R101F, M113T, S115T
VL: QSALTQPASVSGSPGQSITISCTGTSSDVGGYNYVSWYQQHPGKAPKLMIYDVSNRPSGVSNRFSGSKSGNTASLTISGLQAEDEADYYCSSYTSSSTLVVFGGGTKVTVL
notes: also called NM-10; NMES1-10
B3: NMES-6 anti-NMES1 monoclonal antibody (antibody, IgG1, V domains shown)
VH: B1 VH with T100V, R101G, G102Q, N103L, I107Y, M113L, S115T
VL: QSALNQPPSASGSPGQSVTISCTGTSSDVGGYNYVSWYQQHPGKAPKLMIYEVSKRPSGVPDRFSGSKSGNTASLTVSGLQAEDEADYYCSSYAGSNNLVFGGGTKVTVL
notes: also called NM-6; NMES1-6
B4: NMES-4 anti-NMES1 monoclonal antibody (antibody, IgG1, V domains shown)
VH: EVQLVQSGGEVKKPGSSVKVSCKASGGTFSTYAISWVRQAPGQGLEWMGGIIPIFGTTNYAQKFQGRVTITADRSTSTAYMELSSLRSEDTAVYYCARVSELGDYYAMDVWGQGTTVTVSS
VL: DIQMTQSPSSLSASVGDRVTITCRASQGIASALAWYQQKPGKAPKLLIYDASNLESGVPSRFSGSGSGTDFTLTISSLQPEDFATYYCQQAHSFPLTFGGGTKLEIK
notes: also called NM-4; NMES1-4
B5: NMES-1 anti-NMES1 monoclonal antibody (antibody, V domains shown)
VH: QVQLVQSGGGVVQPGRSLRLSCAASGFTFSSYAMHWVRQAPGKGLEWVAVISYDGSNKYYADSVKGRFTISRDNSKNTLYLQMNSLRAEDTAVYYCARLSRFGDESLKDPDYWGQGTLVTVSS
VL: DIVMTQSPLSLPVTLGQPASISCRSSQSLVHSDGNTYLNWFQQRPGQSPRRLIYKVSNRDSGVPDRFSGSGSGTDFTLKISRVEAEDVGVYYCMQGAHWPPTFGPGTKLEIK
notes: also called NM-1; NMES1-1
B6: NMES-3 anti-NMES1 monoclonal antibody (antibody, IgG1, V domains shown)
VH: EVQLLQSGGGVVRPGGSLRLSCAASGFTFDDYGMSWVRQAPGKGLEWVSGINWNGGSTGYADSVKGRFTISRDNAKNSLYLQMNSLRAEDTALYYCARASMVRGVYAFDIWGQGTMVIVSS
VL: DVQMTQSPSSLSASIGDRVTITCRASQSIGSYLNWYQQRPGKAPKLLIYSASSLQSGVPSRFSGSGSRSDFTLTIASLQPEDFATYYCQQSYSGPYTFGQGTKVDIK
notes: also called NM-3; NMES1-3
B7: NMES-7 anti-NMES1 monoclonal antibody (antibody, IgG1, V domains shown)
VH: EVQLVQSGAEVKKPGASVKVSCKASGYTFNRDAISWVRQAPGQGLEWMGWISGYNGNTYYAHKVLGRATMTTDTSTNTAYMELRSLTSDDTAMYYCARVGLQPDTTMDHWGQGTLVTVSS
VL: DIQMTQSPSSLSASVGDRVTITCRASQDIRNDLAWYQQKPGKAPKLLIYTASSLQTGVPSRFSGSGSGTDFTLSISSLQPEDFATYYCLQDYKYPLTFGGGTKLEIK
notes: also called NM-7; NMES1-7
B8: NMES1, endogenous, in human breast cancer cells (BoM-1833) (ligand, UniProt Q9C002 1-83, looked up)
chain: MSFFQLLMKRKELIPLVVFMTVAAGGASSFAVYSLWKTDVILDRKKNPEPWETVDPTVPQKLITINQQWKPIEELQNVQRVTK
notes: Endogenous protein of the cells used for co-IP and for the cell assays; also called C15orf48

Numbering of substitutions follows the chain as printed.

The target of the first experiment is T1, recombinant human NMES1 protein (Normal Mucosa of Esophagus Specific 1) (human, UniProt Q9C002 1-83, limits assumed).
T1 construct: also called rhNMES1; recombinant NMES1 protein
In words: BLI (Octet), antibody on protein A biosensors, recombinant NMES1 0-900 nM, 1:1 fit. As for the experimental part: (§1) Binding constants (EC50) of a panel of monoclonal antibodies were estimated by titration ELISA and data is analyzed using the 4 parameter curve fitting with GraphPad Prism program (Table 5). […] All experiments were performed with shaking at 1,000 rpm. Background wavelength shifts were measured from reference biosensors that were loaded only with antibody with antigen. ForteBio's data analysis software was used to fit the data to a 1:1 binding model to extract an association rate and dissociation rate.
Consider B1, for which the Kd worked out at 27.9 nM, the koff stood at 0.00463 s⁻¹ and the kon was 166000 M⁻¹ s⁻¹.

B2: the Kd came to 89.9 nM, the koff was determined as 0.0131 s⁻¹ and the kon was 146000 M⁻¹ s⁻¹.

As for B3, the Kd was 19.5 nM, the off-rate constant (koff) came out at 0.00441 s⁻¹ and the kon worked out at 227000 M⁻¹ s⁻¹.

As for B4, the Kd was 17.1 nM, the off-rate (koff) stood at 0.00382 s⁻¹ and the kon is 223000 M⁻¹ s⁻¹.

Take B5: the Kd was found to be 15.5 nM, the koff turned out to be 0.00499 s⁻¹ and the kon came to 323000 M⁻¹ s⁻¹.

In the case of B6, the Kd came out at 56 nM, the off-rate (koff) came to 0.00301 s⁻¹ and the association rate constant (kon) was determined as 53800 M⁻¹ s⁻¹.

B7: the Kd came to 39.8 nM, the koff amounted to 0.00595 s⁻¹ and the kon came to 150000 M⁻¹ s⁻¹.

The target in a further experiment is T1, recombinant human NMES1 protein (Normal …). Put plainly: titration ELISA, plate coated with recombinant NMES1 (1 µg/mL), anti-human IgG Fc HRP detection. As for the experimental part:
as §1
Anti-human IgG Fc HRP-conjugated antibody was diluted 1:5000 and added at a volume of 100 μl per well for incubation at 37° C. for 1 hour. The plates were washed 3 times with PBST (0.05% Tween-20) between incubation steps. TMB substrate was added 100 μl per well for color development and 2 M H2504 was added 50 μl per well to stop the reaction. The absorbance at 450 nm was read by SpectraMax microplate reader. For EC50 determination, data points were plotted by GraphPad Prism8. EC50 values were calculated using a three-parameter nonlinear model.
Take B1: the half-maximal effective concentration (EC50) came to 0.216 nM.

B2: the EC50 was 306 nM.

Regarding B3, the EC50 was 2.39 nM.

As to B4, the EC50 was 4.37 nM.

B5: the EC50 is 2.98 nM.

As to B6, the EC50 came out at 40.6 nM.

On to B7, for which the 50% effective concentration (EC50) was found to be 14.4 nM.

For another experiment, the target named is T2, transferrin receptor 1 (TFRC) (human, UniProt P02786 1-760).
T2 construct: Endogenous protein in cell or membrane extracts used for co-IP
T2 sequence (P02786 whole entry): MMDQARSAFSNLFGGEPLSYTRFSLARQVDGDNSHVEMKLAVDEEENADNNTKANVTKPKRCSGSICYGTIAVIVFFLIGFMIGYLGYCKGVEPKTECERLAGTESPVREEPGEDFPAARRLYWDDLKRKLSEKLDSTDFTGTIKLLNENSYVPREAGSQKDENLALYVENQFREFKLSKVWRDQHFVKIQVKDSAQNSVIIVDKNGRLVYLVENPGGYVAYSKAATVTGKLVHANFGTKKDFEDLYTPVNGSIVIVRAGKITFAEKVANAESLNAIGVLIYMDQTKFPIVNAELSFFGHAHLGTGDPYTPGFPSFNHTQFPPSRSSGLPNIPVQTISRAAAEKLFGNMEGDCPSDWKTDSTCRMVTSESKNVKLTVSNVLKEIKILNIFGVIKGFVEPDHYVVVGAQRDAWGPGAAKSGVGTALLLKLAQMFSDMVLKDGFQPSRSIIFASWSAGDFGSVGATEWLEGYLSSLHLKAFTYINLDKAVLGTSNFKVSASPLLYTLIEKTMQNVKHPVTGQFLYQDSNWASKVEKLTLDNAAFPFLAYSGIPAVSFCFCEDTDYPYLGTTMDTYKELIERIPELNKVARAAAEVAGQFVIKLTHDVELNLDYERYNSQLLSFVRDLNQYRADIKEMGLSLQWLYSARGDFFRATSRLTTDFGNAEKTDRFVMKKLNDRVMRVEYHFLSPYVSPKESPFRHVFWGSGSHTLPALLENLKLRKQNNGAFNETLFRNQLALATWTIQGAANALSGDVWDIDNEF
Put plainly: co-IP with α-NMES1 from Ctrl 1833 cells, western blot for TFRC; strong TFRC band.
Consider B8, for which the “Fold (IP/Input), TFRC” value worked out at 79.8 fold.

For another experiment, the target named is T2, transferrin receptor 1 (TFRC). Put plainly: co-IP with α-NMES1 from NMES1-KD 1833 cells, western blot for TFRC; weaker TFRC band, number is normalised to the lower input.
Regarding B8, the “Fold (IP/Input), TFRC” value was found to be 74.9 fold.
